Where two headings read alike, the source gives them in different places.

The target of data set [1] is T1, PDGF-BB (Homo sapiens, UniProt P01127 P01127:82-190).
The target of data set [2] is T2, PDGF-AB (Homo sapiens, UniProt P04085;P01127 P04085:87-211,P01127:82-190).
Data set [3] deals with T1, PDGF-BB. Put plainly: p237 labels ARC125 as SEQ 16, Table 3 as SEQ 17. As to conditions: chain copies: 2 (inferred).
Data set [4] deals with T2, PDGF-AB. Put plainly: p237 labels ARC125 as SEQ 16, Table 3 as SEQ 17.
The target in a further data set is T3, TGF-beta2 (Rattus, UniProt Q07257 Q07257:331-442).
T3 sequence: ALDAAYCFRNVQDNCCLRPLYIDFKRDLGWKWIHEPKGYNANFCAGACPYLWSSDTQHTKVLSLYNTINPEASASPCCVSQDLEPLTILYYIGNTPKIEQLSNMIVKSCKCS
As to the kind of experiment: filter; values in figure only. As to conditions: chain copies: 2 (inferred).

T1 sequence (P01127 82-190, one chain of several): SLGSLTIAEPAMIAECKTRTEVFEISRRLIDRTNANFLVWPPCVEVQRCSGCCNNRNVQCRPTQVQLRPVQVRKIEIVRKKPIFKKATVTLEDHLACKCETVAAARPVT
T2 sequence (P01127 82-190, chain 2 of 2, other chains not shown): as the sequence (P01127 82-190, one chain of several) above
Method for TGF-beta2: Dissociation constants for the binding of aptamers to purified human or rodent TGFβ-2 protein were determined by nitrocellulose-filter partitioning using ³²P-labeled RNA. In vitro transcribed RNA was treated with calf-intestinal alkaline phophatase (New England Biolabs) to remove 5′-triphosphates, then radio-labeled by incubation with γ-³²P-ATP and T4 polynucleotide kinase (New England Biolabs). Unincorporated label was removed by gel-filtration, and the RNAs were further purified by polyacrylamide gel electrophoresis (PAGE). Purified ³²P-labeled aptamer in water was refolded just prior to use by heating for 3 min at 95° C., followed by a 10 minute room-temperature incubation in binding buffer (50 mM Hepes, pH 7.4, 1 mM MgCl₂, 1 mM CaCl₂, 3 mM KCl, 140 mM NaCl, 0.1 mg/ml BSA, 0.01 mg/ml tRNA). The binding reactions (100 μL) were initiated by the addition of aptamer (≦0.1 nM) to excess TGFβ-2 protein (0.2-100 nM), followed by 10-30 minute equilibration at room temperature.
Nitrocellulose-filter partitioning was performed on Minifold® I, 96-well Dot-Blot manifolds (Schleicher & Schuell). Protein-bound aptamer and residual free aptamer were captured, respectively, on pre-wetted Protran nitrocellulose (Schleicher & Schuell) and Hybond-P polyvinylidene difluoride (Amersham Biosciences) filters by vacuum aspiration, and quantified by PhosphorImager (Amersham Biosciences). […]

B1: ARC124 (ssDNA)
DNA: CACAGGCTACGGCACGTAGAGCATCACCATGATCCTGTG
modifications: 3'-3'-dT cap
With B1, the Kd with PDGF-BB [1] and with PDGF-AB [2] was 100 pM throughout.

B2: ARC125 (ssDNA)
DNA: TACTCAGGGCACTGCAAGCAATTGTGGTCCCAATGGGCTGAGTA
modifications: 3'-3'-dT cap
With B2, the Kd with PDGF-BB [3] and with PDGF-AB [4] was 100 pM throughout.

B3: ARC123 (ssDNA)
DNA: TGGGAGGGCGCGTTCTTCGTGGTTACTTTTAGTCCCG
modifications: 3'-3'-dT cap
B3: the Kd with PDGF-BB [1] and in the data set with PDGF-AB [2] was 100 pM in each case.

B4: ARC77 (ssRNA)
RNA: GGAGGUUAUUACAGAGUCUGUAUAGCUGUACUCC
modifications: 2'-F all C and U, 2'-OH purines, 3'-inverted T (3T)
Regarding B4, the binding result with TGF-beta2 was “binds”.

Source of the values: US20040253243, “Aptamer therapeutics useful in ocular pharmacotherapy” (published 2004).
